Measured values from US20260008852A1 (CRYSTAL BIOSCIENCE, published 2026).

T1: His-tagged human B7-H3 (human, UniProt Q5ZPR3-2 29-245, limits assumed)
T1 construct: Bought His-tagged protein coated on the ELISA plate; also called hu B7-H3; CD276
T1 sequence (looked up): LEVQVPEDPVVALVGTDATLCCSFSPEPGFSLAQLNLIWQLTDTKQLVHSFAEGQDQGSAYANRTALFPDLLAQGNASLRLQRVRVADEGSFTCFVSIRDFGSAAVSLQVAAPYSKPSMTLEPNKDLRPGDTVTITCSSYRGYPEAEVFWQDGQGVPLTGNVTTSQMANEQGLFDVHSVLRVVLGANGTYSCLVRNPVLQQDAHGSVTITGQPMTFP

T2: His-tagged mouse B7-H3 (mouse, UniProt Q8VE98 29-244, limits assumed)
T2 construct: Bought His-tagged protein coated on the ELISA plate; also called mu B7-H3; murine B7-H3
T2 sequence (looked up): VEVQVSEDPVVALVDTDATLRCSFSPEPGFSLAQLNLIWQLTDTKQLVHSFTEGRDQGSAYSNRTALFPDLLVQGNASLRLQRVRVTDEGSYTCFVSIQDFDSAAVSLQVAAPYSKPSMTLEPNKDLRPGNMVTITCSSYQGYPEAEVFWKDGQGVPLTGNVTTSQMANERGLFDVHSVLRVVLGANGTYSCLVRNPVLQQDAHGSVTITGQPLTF

T3: His-tagged cynomolgus monkey B7-H3 (cynomolgus monkey)
T3 chain: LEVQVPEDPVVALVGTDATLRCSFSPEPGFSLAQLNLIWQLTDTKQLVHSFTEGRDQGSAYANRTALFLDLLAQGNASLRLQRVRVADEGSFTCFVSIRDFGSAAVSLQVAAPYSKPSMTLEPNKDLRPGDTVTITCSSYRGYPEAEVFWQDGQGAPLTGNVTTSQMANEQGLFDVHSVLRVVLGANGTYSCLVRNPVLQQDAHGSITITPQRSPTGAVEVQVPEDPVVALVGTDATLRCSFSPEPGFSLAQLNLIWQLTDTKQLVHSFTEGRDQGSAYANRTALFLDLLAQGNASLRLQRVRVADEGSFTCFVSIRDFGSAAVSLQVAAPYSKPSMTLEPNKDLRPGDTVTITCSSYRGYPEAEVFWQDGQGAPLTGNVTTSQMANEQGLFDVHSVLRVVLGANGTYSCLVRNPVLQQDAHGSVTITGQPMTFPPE

T4: B7-H3 on B7-H3-expressing CHO cells (Genescript) (UniProt Q5ZPR3 29-534, limits assumed)
T4 construct: whole, on cells; also called CHO-K1/B7-H3; MFI B7-H3
T4 sequence (looked up): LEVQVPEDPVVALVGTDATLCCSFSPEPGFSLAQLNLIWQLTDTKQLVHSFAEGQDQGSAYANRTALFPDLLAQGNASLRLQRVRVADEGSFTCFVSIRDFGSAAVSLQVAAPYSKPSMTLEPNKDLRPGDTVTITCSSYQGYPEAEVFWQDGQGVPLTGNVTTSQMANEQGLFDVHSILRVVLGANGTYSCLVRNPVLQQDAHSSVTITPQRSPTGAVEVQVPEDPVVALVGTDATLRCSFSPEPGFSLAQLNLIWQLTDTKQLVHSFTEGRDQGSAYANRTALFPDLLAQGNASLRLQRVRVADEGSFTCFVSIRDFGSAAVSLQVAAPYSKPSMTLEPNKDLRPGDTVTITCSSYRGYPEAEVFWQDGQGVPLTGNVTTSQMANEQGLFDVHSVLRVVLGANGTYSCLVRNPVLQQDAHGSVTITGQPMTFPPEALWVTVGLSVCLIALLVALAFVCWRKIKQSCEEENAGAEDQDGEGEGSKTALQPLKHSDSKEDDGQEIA

B1: 40633p1.2.A10 (scFv, V domains shown)
VH: EVQLLESGGGLVQPGGSLRLSCAASGFTVSYYGMSWVRQAPGKGLEWVSVIKQDGSEEYYADSVKGRFTISRDNSKNTLYLQMNSLRAEDTAVYYCARHWNDYSNGMNVWGQGTTVTVSS
VL: QSVLTQPPSASGTPGQRVTISCSGSTSNVGDRYVYWYQQLPGTAPKLLIYLDDQRPSGVPDRFSGSKSGTSASLAISGLQSEDEADYYCASWDASLNGWVFGGGTKLTVL
notes: Tested as scFv-Fc (Expi293 supernatant)
B2: 40633p1.1.A6 (scFv, V domains shown)
VH: EVQLLESGGGLVQPGGSLRLSCAASGFSFSNYDMSWVRQAPGKGLEWVAGIRSGSRTYYADSVKGRFTISRDNSKNTLYLQMNSLRAEDTATYYCGRYFNMDVWGQGTTVTVSS
VL: QSVLTQPPSASGTPGQRVTISCSGSTFNIGTNLVHWYQQLPGTAPKLLIYLTDRRPSGVPDRFSGSKSGTSASLAISGLQSEDEANYYCATWDDSLNSFLFGGGTKLTVL
notes: as for B1
B3: 40633p1.2.E11 (scFv, V domains shown)
VH: EVQLLESGGGLVQPGGSLRLSCAASGFSFSNYDMSWVRQAPGKGLEWVAGIRSGSRTYYADSVKGRFTISRDNSKNTLYLQMNSLRAEDTATYYCGRYFNMDVWGQGTTVTVSS
VL: QSVLTQPPSASGTPGQRVTISCSGSTFNIGTNLVHWYQQLPGTAPKLLIYLTDRRPPGVPDRFSGSKSGTSASLAISGLQSEDEANYYCATWDDSLNSFLFGGGTKLTVL
notes: as for B1
B4: 40579p1.E5 (scFv, V domains shown)
VH: EVQLLESGGGLVQPGGSLRLSCAASGFTFSDDWMTWVRQAPGKGLEWVSAINWNGNSTHYADSVKGRFTVSRDNSKNTLYLQMNSLRAEDTAVYYCAKSRTTYYSSMDVWGQGTTVTVSS
VL: EIVLTQSPGTLSLSPGERATLSCRASQTVGSYLAWYQQKPGQAPRLLIYGASSRATGIPARFSGSGSGTDFTLTISSLQSEDFAVYYCQHYYDWPPYSFGGGTKVEIK
notes: as for B1
B5: 40579p1.G1 (scFv, V domains shown)
VH: EVQLLESGGGLVQPGGSLRLSCAASGFNFSSYWMSWVRQAPGKGLEWVSGISISYGGNAYYADSVKGRFTVSRDNSKNTLYLQMNSLRAEDTAVYYCGRDRSPYQYRSMDVWGQGTTVTVSS
VL: EIVLTQSPGTLSLSPGERATLSCRASQSIRSDLAWYQQKPGQAPRLLIYGASSRATGIPARFSGSGSGTEFTLTISSLQSEDFAVYYCQQYNNWPPLTFGGGTKVEIK
notes: as for B1
B6: 40579p1.H7 (scFv, V domains shown)
VH: EVQLLESGGDLVQPGGSLRLSCAASGFNFSSYWMSWVRQAPGKGLEWVSGISISYGGNAYYADSVKGRFTVSRDNSKNTLYLQMNSLRAEDTAVYYCGRDRSPYQYRSMDVWGQGTTVTVSS
VL: EIVLTQSPGTLSLSPGERATLSCRASQSIRSDLAWYQQKPGQAPRLLIYGASSRATGIPARFSGSGSGTEFTLTISSLQSEDFAVYYCQQYNNWPPLTFGGGTKVEIK
notes: as for B1
B7: 40633p1.1.A11 (scFv, V domains shown)
VH: EVQLLESGGDLVQPGGSLRLSCAASGFTFNTYWMNWVRQAPGKGLEWVAGINSKGGVTYYADSVKGRFTISRDNSKNTLYLQMNSLRAEDTAVYYCADWNDYDIMDVWGQGTTVTVSS
VL: QSVLTQPPSASGTPGQTITISCSGSSSNVGRRTVNWYQQLPGTAPKLLIYTNAQRPSGVPDRFSGSKSGTSASLAISGLQSEDEADYYCATWDDSLNAWVFGGGTKLTVL
notes: as for B1
B8: 40511p1.1.A1 (scFv, V domains shown)
VH: DVQLVESGGGVVRPGESLRLSCAASGFTFSNYAMNWVRQAPGEGLEWVSRINYKGYNITYYADSVKGRFTISRDNSKNTLYLQMNSLRAEDTAVYYCAKSGSNSNNFFDYWGLGTLVTVSS
VL: EIVLTQSPGTLSVSPGERATLSCRASQSVNSKLAWYQQRPGQAPRLLIYDASSRATGIPDRFSGSGSGTDFTLTISRLEPEDFAVYYCQQYKNWPPLTFGGGTKVEIK
notes: as for B1
B9: 40579p1.F7 (scFv, V domains shown)
VH: EVQLLESGGGLVQPGGSLRLSCAASGFTFSDYYMSWVRQAPGKGLEWVSGISISYGGNAYYADSVKGRFTVSRDNSKNTLYLQMNSLRAEDTAVYYCGRDRSPYQYRSMDVWGQGTTVTVSS
VL: EIVLTQSPGTLSLSPGERATLTCRASQSVGDFLAWYQQKPGQAPRLLIYGASTRAAGIPARFRGSGSGTDFTLTISSLQSEDFAVYYCQQYKNWPPLTFGGGTKVEIK
notes: as for B1
B10: 40579p1.H6 (scFv, V domains shown)
VH: EVQLLESGGGLVQPGGSLRLSCAASGFTVNNAWMSWVRQAPGKGLEWVSAISYGGSIYYADSVKGRFTISRDNSKNTLYLQMNSLRAEDTAVYYCAKHRSTTYNGMDVWGQGTTVTVSS
VL: EIVLTQSPGTLSLSPGERATLSCRASQSVGSFLAWYQQKPGQAPRLLIYGANTRAAGIPDRFRGSGNGTDFTLTISSLQSEDFAVYYCQQYYDWPPLTFGGGTKVEIK
notes: as for B1

What was measured:
His-tagged human B7-H3 [1] = biological target: T1, His-tagged human B7-H3; assay: ELISA OD450 on hu B7-H3 over OD450 on mu B7-H3
Experimental: (§1) The variable regions of heavy and light chains were cloned and assembled into a single chain Fv-Fc (ScFv-Fc) mammalian expression vector. Sanger sequencing was performed by GeneWiz and sequences were evaluated using DNASTAR Lasergene 15. Unique scFv-Fes were transiently expressed in Expi293 cells (Life Technologies, #A14527) grown in Expi293 Expression Medium (Life Technologies, #A1435101) after transfection using the ExpiFectamine transfection reagent and supplements (Life Technologies, #A14524). Cells were incubated for 3-5 days with shaking at 37° C. in a 5% CO2 humidified incubator.

His-tagged human B7-H3 [2] = biological target: T1, His-tagged human B7-H3; assay: ELISA, coated His-tagged antigen, scFv-Fc 1 ug/ml
Experimental: as §1

His-tagged mouse B7-H3 = biological target: T2, His-tagged mouse B7-H3; assay: ELISA, coated His-tagged antigen, scFv-Fc 1 ug/ml
Experimental: as §1

[3] = biological target: T3, His-tagged cynomolgus monkey B7-H3; assay: ELISA, coated His-tagged antigen, scFv-Fc 1 ug/ml
Experimental: as §1

[4] = biological target: T4, B7-H3 on B7-H3-expressing CHO cells …; assay: flow cytometry, B7-H3-expressing CHO cells, 10 ug/ml
Experimental: Binding of anti-B7-H3 antibodies to cell lines was assessed by flow cytometry. Briefly, approximately 1.5 e5 B7-H3-expressing CHO cells (Genescript) or parent CHO cells (ATCC) were resuspended in FACS buffer (PBS/1% BSA/0.01% NaN3) containing 10 μg/ml of anti-B7-H3 antibodies and incubated for 60 min on ice. […] Cells were then washed twice, resuspended in FACS buffer, and read on an Attune Flow Cytometer (Life Technologies). Data are expressed as Mean Fluorescent Intensities (MFI).

Binder | hu:mu ratio (His-tagged human B7-H3 [1]) | ELISA OD450 @ 1 ug/ml (His-tagged human B7-H3 [2]) [OD450] | ELISA OD450 @ 1 ug/ml (His-tagged mouse B7-H3) [OD450] | ELISA OD450 @ 1 ug/ml [3] [OD450] | MFI @ 10 ug/ml [4] [MFI]
B1 | 1.06 | 2.14 | 2.02 | 2.14 | 63500
B2 | 1.49 | 1.88 | 1.26 | 1.62 | 67800
B3 | 1.5 | 2.09 | 1.4 | 2.14 | 81300
B4 | 1.36 | 1.95 | 1.44 | 2.17 | 89200
B5 | 0.966 | 1.73 | 1.79 | 1.73 | 87100
B6 | 0.971 | 1.86 | 1.92 | 1.73 | 74600
B7 | 1.63 | 2.08 | 1.27 | 1.77 | 64800
B8 | 1.87 | 1.9 | 1.02 | 2.27 | 34100
B9 | 1.32 | 2.02 | 1.53 | 2.28 | 64500
B10 | 1.28 | 1.49 | 1.17 | 1.7 | 67600
